# Results taken from the DeepSol protein solubility set.
# Experiment: soluble on expression in E. coli; label from the status in PepcDB or PDB records
row,Sequence,soluble on expression in E. coli
1,MKLHEHQAKEIFAKYGIPVPEGKVAFSLKEAKEVAEELGEFPLVVKAQIHCGGRGKAGGVKIVKDMDELEKAVESLLGKVLKTFQCPDGKPVNRVLIEKATNIDKEYYLAITLDRSKSKPVIMASAAGGMEIEEIVKENPEAIIIETIDPELGLMPYQARELAFKLNLPVKEFASIALKLYQIYSDLDASLVEINPLVLTKEGNLIALDAKLDIDDNALFRHKDLEEMEDETQLPQLEVEAKKYGLNYIKLNGNIGCMVNGAGLAMATMDIIKLAGGEPANFLDVGGGANVEQIANAFRILMADPDVKAVFINIFGGILRVDRLAQGLIEASKMVELRVPIVARLEGTNVEEGKRMLQESGLNFIIAEDMWDGAKKAVEIANKQS,soluble
2,MGSNTLLCAKWLRGLRPRSRVNPLLNRALAAVGAGSPAKGRQAAPLAPIPRSSPVKALDQLTFDNRFARLGDAFSTQVLPEPIADPRLVVASESAMALLDLDPAQAELPVFAELFSGHKLWEEADPRAMVYSGHQFGSYNPRLGDGRGLLLAEVLNDAGEHWDLHLKGAGQTPYSRMGDGRAVLRSSIREFLASEALHALGIATSRALCVIGSSTPVWRETRESAAMLTRLAQSHVRFGHFEYFYYTKQPEQQRVLIDHVLEQHYPECREAEQPYLAMFRTIVERNAELIARWQAYGFCHGVMNTDNMSILGITFDFGPYAFLDDFDANFICNHSDDRGRYSYANQVPIAHWNLSALAQALTTVIEVEPLKEALGLFLPLYQAHYLDLMRRRLGLTTAEDDDMVLVERLLQCMQRGGVDYSLFFRKLGEQPVAEALKVARDDFIDLAGFDAWGADYLARCGREPGNAEGRRERMHAVNPLYVLRNYLAQKAIEAAEAGDYSEVRRLHQVLARPFEEQPGMQAYAERPPEWGKHLEISCSSLEHHHHHH,soluble
3,PISNIFAGLLFYVLSDYVTEDTGIRITRAELEKTIVEHGGKLIYNVILKRHSIGDVRLISCKTTTECKALIDRGYDILHPNWVLDCIAYKRLILIEPNYCFNVSQKMRAVAEKRVDCLGDSFENDISETKLSSLYKSQLSLPPMGELEIDSEVRRFPLFLFSNRIAYVPRRKISTEDDIIEMKIKLFGGKITDQQSLCNLIIIPYTDPILRKDCMNEVHEKIKEQIKASDTIPKIARVVAPEWVDHSINENCQVPEEDFPVVNY,soluble
4,MPSYKLTYFFFRGLGEPIRLLFHLAGVQFEEVRMNPDQTWLDIKDSTPMKQLPVLNIDGFELPQSGAILRYLARKFGFAGKTPEEEAWVDAVHDLFKDFLAEFKKFAAERRSGKSAEEVEKFRSEFFLPARNTYFNILNGLLEKSNSGFLIGSDITFADLVVVDNLLTLKNYGLFDESEFTKLAALREKVNSYPGIKEYIAKRPVTEY,soluble
5,MGSDKIHHHHHHMSYLKISDTIVETFRFIHYEQSNFLNRLHGGDMLFFLVETGMISASKVAMGTTLLASLDDVVFKKPVRLGDIVKVRAKTVYIGNTSLEVEVRAFVRDEEVVSAYATYVKVDDLLRPTPVNVKIMAESEDDKRKIDEAKKRRENRLSKIVNRQKMRFYVDDITDGLRYRISNVIHVSPELTYDGRIMSAGKLLKLMDDLGGIICLRYLDHNSSNLYDNSFNAVVTVAVKGLAFYSPIRLNDIILIRAGLVYVGNTSADILINVVREDLNGAKEHVATAYFTYVRVDKDGKPIKIPEYTPVTEREKRLYEEALTRRGLRK,not soluble
6,MSLDYAQRAVQVDPPRRLTHEMDSWARNFVMLRTDVQGRPINRLEGVYVEHFPDDDSYHVTTPRAIGQQAGNPITIGVSKTAIMEQGGQRIVMNGDAHVHRQPDARNETLDVRSQQLILLPDDDVVFTDLPAQVNKGNSRMNGTGMHYNNKTRQLRVSAAADVEIAGTEGRKRQSTETPANSNQNKPEGHHHHHH,soluble
7,PDFTPQKFKEKTAEQLRVLQASFLNSSVLTDEELNRLRAQTKLTRREIDAWFTEKKKSKALKEEKMEIDESNAGSS,soluble
8,MATWEEYLGAQQANDGVQFTWNMWPHSRVDSQKLVVPLTCFFTPLKERPSTEVAQPPLEYDPVLCQKASCKAILNPLCAVDYRAKIWMCPFCNNRNPFPAHYAAIAEDNRPPELYPQFTTIEYTLRKATTMPPIFVFVVDTCMTAEELKSLKECLQTALSLLPADALVGLITYGRMVQLHELNTQGISRSYVFKGTKEVTAKQIKDVMAGGGLSQRPAAGAPGAPAGAPGAPMAMGSGAAPLGQLPGSGLPGGLPRGGGPPLPGAAQGIVAPGGGAPVPHAPANKFLQPISECDESINDLIDQISIDRWPVPQGHRPLRATGAALAVAVTLLESCFPSTGARIMSFIGGACTHGPGAVVGEELKNPIRSWNSIKEDAAPYMKKAIKFYDGLAARIVKNGHAVDVYSCALDQTGLLEMKNMFNSSGGHVVMGDSFNSSLFKQTYQRSFDKDSAGNLKMGFNATMEVKVGAGLKIEGVLGCCASGNVRNANVSDQEMGIGGTCQWKFGAISPRTTIGVVFEIAAQHGSAIPQGGRGMVQFVTQYQHADGRKRIRVTTTCRTWADMATQQPNIAYGFDQEAAAVAIARLASFRASNENDTPEALRWLDRSLIRLCQKFGEYSKDDPNSFRLSDKFSLFPQFMFHLRRSQFLQVFNNSPDETAYYRHILFSENVLESTTMIQPVLFSYSFNGPPEPVLLDTSSILADRILLMDDYFHVLIYHGQTIAQWRKQNFHENPQYATFKQLLEAPVADATSILQERFPMPRYIVTEHEGSQARFLLSKVNPSLTHNNPYANEAGSAVFTDDVSLQVFMEHLKKLSSSSST,not soluble
9,QSSSSAIEATIEGNSQTTISQTSHFIQSYIKKLETTSTGLTQQTDVLAYAENPSQDKVEGIRDLFLTILKSDKDLKTVVLVTKSGQVISTDDSVQMKTSSDMMAEDWYQKAIHQGAMPVLTPARKSDSQWVISVTQELVDAKGANLGVLRLDISYETLEAYLNQLQLGQQGFAFIINENHEFVYHPQHTVYSSSSKMEAMKPYIDTGQGYTPGHKSYVSQEKIAGTDWTVLGVSSLEKLDQVRSQL,not soluble
10,MGSDKIHHHHHHMKKIVERAPTVEEAIEKVVKKYGLGEGEYTVNVLEKGFHGIFGLFSKEAVVEVQITKAYFERRLKEFLTEILQVVDPEVKITVKSSGRSFFVDVESENAGRLIGKHGKTMGALQHIAMIFLNRLSDTKLNVILDMGDYREKRKKSLEKIVEEAVKKAISEKTKVVLDPMFSFERKIVHKLVRKHRGVISYSVGVEPYRRVVIEYSATRREGRRKHDIKESI,not soluble
11,MSLFVSLSEKKKFLTWLVNTAPFGRREVLWILNYLLTHDAILNNVHFVENVEKTDRGIRVVADGLGKEPLLLFIQAQEFTDPEQIFHEIRMNWRKALYLECVFPEAWQTSQYLSVLEDNPFAPWNEQVDQEVARAIDQYFKQEEQTQRMALLKAQIDDALETGNKEAFLELSDELNRLKQQEGHHHHHH,soluble
12,MWPPCFWWRTSPACAWGCGWPSRGRGTGFWRRPPRRRPWPLLREAELVVLDWMLPDEPGVRLLDRMRQGPYESLPVLMLTARAGVRDRVEGLSRGADDYLVKPFAVEELLARLEALLRRAGKRKVLRRGPLLLDLERMEARLEGNPLPLTRREFALLAYLAERPGRVCTREELLEAVWGPDYLGTPRTVDQHVLQLREKLGEDPKAPRFLETVRGVGYRFREEA,soluble
13,MSLQTIEEMDAYPAVDDSGDHLLDPNMIPTAATEVVMSGDGIERQFGDEEDTYQYEYTYEDDPQLEIGEEEVVVTDEAEYQEHWKDEEK,not soluble
14,MSLRTLVAGVDTSTQSCKVRVTDAETGELVRFGQAKHPNGTSVDPSYWWSAFQEAAEQAGGLDDVSALAVGGQQHGMVILDNQGNVIRDAMLWNDTSSAPQAAALIEKLGAAPAQDGEPEDPIARGKQRWVKAVGSSPVASYTLTKVAWVAENEPENVKKIAAICLPHDWLSWRIAGYGPVAEGEDAHLEALFTDRSDASGTIYYDAASNEYRRDLIAMVLEAAEGAKAAQSHAEAIVLPTVLGPRDAAPVKADPAIAGKNVEGGCLLAPGGGDNAMASLGLGMAVGDVSISLGTSGVAAAISENPTYDLTGAVSGFADCTGHYLPLACTINGSRILDAGRAALGVDYDELAKLAFASKPGANGITLVPYFDGERTPNRPNATATFSGMTLANTTRENLARAFVEGLLCSQRDCLELIRSLGASITRILLIGGGAKSEAIRTLAPSILGMDVTRPATDEYVAIGAARQAAWVLSGETEPPAWQLTIDGVETGEPTEAVYEAYAKARGEGHHHHHH,soluble
15,MIFENRLALSAMAGVNNAEFCRKQKASLVILGGFNADRRALEAAEKAVKRGRKEFLFGIDGIEGEIKKLGRRKFAVNVRSSSLEGYLNVAELVAEFEGIIEINAHCRQPEFVEIGCGEWLLFNHERLVEIVSKTSRIAPTFVKIRGGHKLDYEKIARKLFDAGCLAIHVDAMIPGGGCDFSLIERISRIGNVIGNNSFVDIESGERIIMAGAKMASAARAVLRDENFFEKMLRSPLLSQPVELSCGRFRLEHHHHHH,soluble
16,MSLTQREEELARVLSGPEFATIRPDDLSVLDYSLLTLRRARLLNGAGFAANSLWLGRGDSARFPEFLRTMGWIGAYDLSLLNVLVSHQIAGDALLSHGGPEQLDAWAGEIDAMERMYCFAGSELLAGSDLKRVRTTAVYDPHGRSLVLNTPRPADSKVWTGNSLHTGDVAMVLARLEVGGRDEGHHWLRVPLREAGAVLPGVRIGRAEPKGGVTANQTGVLTFTDHRLPLSALMNRWASIDEDGTYRSPLPRHRRFEECLATFTHERLFPSVGAAYAQLLACTITTRFAAVKQTFGRPLIGHEHYRMRLSAAVGRSLAARHAMTALAEVAVARSAEGAPARDQVLHALISCGKSGCTGDARQTLAETRELCGGLGYHDANQIAPLLHDYEIAVTFGGDNTVLGYQATRFALREGHHHHHH,not soluble
17,MGSDKIHHHHHHMSDIPYQTIDTRALHRFAQPDRIAPAMYHDPALFEAELDRIFYRTWIWVAHDSELPNPGDFITTTIGRQPVIVVRDKTGEINVLQNRCRHRGATVCESHKGNAKGFTCPYHSWSYALDGTLRALPYGDGYEGVCEKGDLPLVKLRVGVYQGLIFASFNDDIEPLEDFLGGAKPWIDLFMKQGAGYPIKANGEHKFKFKGNWKIQLENTTDLYHFPVVHKSWMKSIDDETAAAITSFMTSEHAFCRALGNGHSLAVLMPELIDLDEDDGAPLPERFAPLAATLAERHAPDEVRRIVRSLLGVGFNLNLFPNLALSMAFFRVLRPISANETEIRHVALAMDGGPDEANRERLRIHEHFQGPFGFGSPDDAEAWERVQRGAHAGPDVPILVNRGLNRETTAANGEKTAHATDETGMREAYQQWRKLMEQA,not soluble
18,MTNNAVLQLRAERLARATRPFLARGNRVRRCQRCLLPLKSCLCDTLTPSQAKSRFCLVMFDTEPMKPSNTGRLIADILPDTAAFQWSRTEPPQALLELVQHPDYQPIVVFPASYAGEAREVISTPPAGKPPLFIMLDGTWPEARKMFRKCPYLDHLPVISVDLSRLSAYRLREIHAEGQYCTAEVAIALLDLAGDTEAATSLGEHFTRFKTRYLAGKTQHPGNVTALEHHHHHH,not soluble
19,MGSDKIHHHHHHRPYTPDYEIVPEYTNADTWKAYEAFNEHLLDQNKFIYKSSTADKAAVDRWNGAAAIWCQPTYWDMAMNAYKRAKAEGDTQKEQKFKQLCDDLFAGNKAHYANFDFDDNNENTGWFIYDDIMWWTVTLARAYELFGVEEYLSLSEESFGRVWYGSEKVGDTGSYADPEKGLGGGMFWQWQPIKNPNPNEADHGKMACINFPTVVAALTLYNNVPTGRTESTDSHPSYQTKEQYLAKGKEIYAWAVENLVDVTTGQVADSRHGNGNPAWKDHVYNQASYIGASVLLYKATGEKQYLDNAVMAADYTMNTISGTFDLLPFETGAEQGIYTAVFAQYIAMLVYDCDQTQYIPFVKRNINYGWANRDKTRDICGGDYTKLQVEGDAVESYSASGIPALMLLFPTDK,not soluble
